Legend:
[1] = target: T1, CD-20 on cells (UniProt P11836 1-297, limits assumed); assay: flow cytometry on cells, antibody at 2 ug/mL
T1 construct: whole, on cells
T1 sequence (looked up): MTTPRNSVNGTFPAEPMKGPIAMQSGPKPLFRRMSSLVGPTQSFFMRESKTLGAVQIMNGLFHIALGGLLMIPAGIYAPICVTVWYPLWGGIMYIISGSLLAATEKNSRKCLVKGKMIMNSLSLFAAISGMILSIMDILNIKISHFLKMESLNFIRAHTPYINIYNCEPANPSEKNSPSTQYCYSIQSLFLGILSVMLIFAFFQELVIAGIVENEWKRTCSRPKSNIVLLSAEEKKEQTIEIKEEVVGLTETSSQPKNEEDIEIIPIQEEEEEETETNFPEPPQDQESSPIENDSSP
Protocol: (§1) Stable cell lines overexpressing a cell-surface antigen of interest or human tumor cell lines were harvested from tissue culture flasks and resuspended in phosphate buffered saline (PBS) containing 5% fetal bovine serum (PBS/FBS). Prior to staining, human tumor cells were incubated on ice with (100 μl) human IgG at 5 μg/ml in PBS/FCS. 1−5×10⁵ cells were incubated with antibody or DVD-Ig (2 μg/mL) in PBS/FBS for 30-60 minutes on ice. Cells were washed twice and 100 μl of F(ab′)2 goat anti human IgG, Fcγ-phycoerythrin (1:200 dilution in PBS) (Jackson ImmunoResearch, West Grove, Pa., Cat. #109-116-170) was added. After a 30 minute incubation on ice, cells were washed twice and resuspended in PBS/FBS. Fluorescence was measured using a Becton Dickinson FACSCalibur (Becton Dickinson, San Jose, Calif.).
(§2) The geometric mean is the n root of the multiplication product of n fluorescent signals (a1×a2×a3 . . . an). With log-transformed data the geometric mean is used to normalize the weighting of the data distribution.

[2] = target: Recombinant Human β-NGF (human, UniProt P01138 122-241); assay: cell-based or functional assay
[3] = target: T2, NRP1 on cells (UniProt O14786 22-923, limits assumed); assay: flow cytometry on cells, DVD-Ig at 2 ug/mL
T2 construct: whole, on cells
Protocol: as §1, §2

[4] = target: T1, CD-20 on cells; assay: flow cytometry on cells, DVD-Ig at 2 ug/mL
Protocol: as §1, §2

[5] = target: T3, IGFR on cells (UniProt P08069 31-1367, limits assumed); assay: flow cytometry on cells, DVD-Ig at 2 ug/mL
T3 construct: whole, on cells; also called IGF1R
Protocol: as §1, §2

[6] = target: T4, Recombinant Human DLL4 (human, UniProt Q9NR61 27-524); assay: SPR (Biacore)
T4 construct: Bought reagent of the Biacore analyses
Protocol: The BIACORE assay (Biacore, Inc, Piscataway, N.J.) determines the affinity of antibodies or DVD-Ig with kinetic measurements of on-rate and off-rate constants. Binding of antibodies or DVD-Ig to a target antigen (for example, a purified recombinant target antigen) was determined by surface plasmon resonance-based measurements with a Biacore® 1000 or 3000 instrument (Biacore® AB, Uppsala, Sweden) using running HBS-EP (10 mM HEPES [pH 7.4], 150 mM NaCl, 3 mM EDTA, and 0.005% surfactant P20) at 25° C. All chemicals were obtained from Biacore® AB (Uppsala, Sweden) or otherwise from a different source as described in the text. For example, approximately 5000 RU of goat anti-mouse IgG, (Fcγ), fragment specific polyclonal antibody (Pierce Biotechnology Inc, Rockford, Ill.) diluted in 10 mM sodium acetate (pH 4.5) was directly immobilized across a CM5 research grade biosensor chip using a standard amine coupling kit according to manufacturer's instructions and procedures at 25 μg/ml. Unreacted moieties on the biosensor surface were blocked with ethanolamine. Modified carboxymethyl dextran surface in flowcell 2 and 4 was used as a reaction surface. Unmodified carboxymethyl dextran without goat anti-mouse IgG in flow cell 1 and 3 was used as the reference surface. For kinetic analysis, rate equations derived from the 1:1 Langmuir binding model were fitted simultaneously to association and dissociation phases of all eight injections (using global fit analysis) with the use of Biaevaluation 4.0.1 software. Purified antibodies or DVD-Ig were diluted in HEPES-buffered saline for capture across goat anti-mouse IgG specific reaction surfaces. Antibodies or DVD-Ig to be captured as a ligand (25 μg/ml) were injected over reaction matrices at a flow rate of 5 μl/min. The association and dissociation rate constants, kₒₙ (M⁻¹s⁻¹) and koff (s⁻¹) were determined under a continuous flow rate of 25 μl/min. Rate constants were derived by making kinetic binding measurements at different antigen concentrations ranging from 10-200 nM. The equilibrium dissociation constant (M) of the reaction between antibodies or DVD-Igs and the target antigen was then calculated from the kinetic rate constants by the following formula: KD=koff/kₒₙ. Binding was recorded as a function of time and kinetic rate constants were calculated.

[7] = target: T5, DLL4 on cells (UniProt Q9NR61 27-685, limits assumed); assay: flow cytometry on cells, antibody at 2 ug/mL
T5 construct: whole, on cells
Protocol: as §1, §2

[8] = target: T2, NRP1 on cells; assay: flow cytometry on cells, antibody at 2 ug/mL
Protocol: as §1, §2

B1: AB001 (antibody, V domains shown)
VH: QVQLQQPGAELVKPGASVKMSCKASGYTFTSYNMHWVKQTPGRGLEWIGAIYPGNGDTSYNQKFKGKATLTADKSSSTAYMQLSSLTSEDSAVYYCARSTYYGGDWYFNVWGAGTTVTVSA
VL: QIVLSQSPAILSPSPGEKVTMTCRASSSVSYIHWFQQKPGSSPKPWIYATSNLASGVPVRFSGSGSGTSYSLTISRVEAEDAATYYCQQWTSNPPTFGGGTKLEIKR
notes: Parent antibody; also called CD-20; AB001VH
FACS Geometric Mean [1]: 1400

B2: DVD1352 (bispecific antibody, human IgG1, kappa)
heavy: not shown
light: DIQMTQSPSSLSASVGDRVTITCRASQSISSYLAWYQQKPGKAPKLLIYGASSRASGVPSRFSGSGSGTDFTLTISSLQPEDFATYYCQQYMSVPITFGQGTKVEIKRTVAAPDIQMTQSPSSLSASVGDRVTITCRASEDIYNALAWYQQKPGKAPKLLIYNTDTLHTGVPSRFSGSGSGTDYTLTISSLQPEDFATYFCQHYFHYPRTFGQGTKVEIKRTVAAPSVFIFPPSDEQLKSGTASVVCLLNNFYPREAKVQWKVDNALQSGNSQESVTEQDSKDSTYSLSSTLTLSKADYEKHKVYACEVTHQGLSSPVTKSFNRGEC
notes: DVD-Ig; also called DVD1352H; DVD1352L
C-Terminal VD NGF Inhibition Assay EC50 [2]: 0.226 nM | FACS Geometric Mean N-terminal [3]: 42

B3: DVD1336 (bispecific antibody, human IgG1, kappa)
heavy: not shown
light: QIVLSQSPAILSPSPGEKVTMTCRASSSVSYIHWFQQKPGSSPKPWIYATSNLASGVPVRFSGSGSGTSYSLTISRVEAEDAATYYCQQWTSNPPTFGGGTKLEIKRTVAAPDIQMTQSPSSLSASVGDRVTITCRASEDIYNALAWYQQKPGKAPKLLIYNTDTLHTGVPSRFSGSGSGTDYTLTISSLQPEDFATYFCQHYFHYPRTFGQGTKVEIKRTVAAPSVFIFPPSDEQLKSGTASVVCLLNNFYPREAKVQWKVDNALQSGNSQESVTEQDSKDSTYSLSSTLTLSKADYEKHKVYACEVTHQGLSSPVTKSFNRGEC
notes: DVD-Ig; also called DVD1336H; DVD1336L
FACS Geometric Mean N-terminal [4]: 754

B4: DVD1324 (bispecific antibody, human IgG1, kappa)
heavy: not shown
light: DIQMTQFPSSLSASVGDRVTITCRASQGIRNDLGWYQQKPGKAPKRLIYAASRLHRGVPSRFSGSGSGTEFTLTISSLQPEDFATYYCLQHNSYPCSFGQGTKLEIKRTVAAPDIQMTQSPSSLSASVGDRVTITCRASEDIYNALAWYQQKPGKAPKLLIYNTDTLHTGVPSRFSGSGSGTDYTLTISSLQPEDFATYFCQHYFHYPRTFGQGTKVEIKRTVAAPSVFIFPPSDEQLKSGTASVVCLLNNFYPREAKVQWKVDNALQSGNSQESVTEQDSKDSTYSLSSTLTLSKADYEKHKVYACEVTHQGLSSPVTKSFNRGEC
notes: DVD-Ig; also called DVD1324H; DVD1324L
FACS Geometric Mean N-terminal [5]: 825

B5: AB015 (antibody, V domains shown)
VH: EVQLVESGGGLVQPGGSLRLSCAASGFTFTDNWISWVRQAPGKGLEWVGYISPNSGFTYYADSVKGRFTISADTSKNTAYLQMNSLRAEDTAVYYCARDNFGGYFDYWGQGTLVTVSS
VL: DIQMTQSPSSLSASVGDRVTITCRASQDVSTAVAWYQQKPGKAPKLLIYSASFLYSGVPSRFSGSGSGTDFTLTISSLQPEDFATTYYCQQSYTGTVTFGQGTKVEIKR
notes: Parent antibody; also called DLL4; AB015VH
Kd [6]: 0.414 nM | koff [6]: 0.000166 s⁻¹ | kon [6]: 400000 M⁻¹ s⁻¹ | FACS Geometric Mean [7]: 308

B6: AB016 (antibody, V domains shown)
VH: EVQLVESGGGLVQPGGSLRLSCAASGFSFSSEPISWVRQAPGKGLEWVSSITGKNGYTYYADSVKGRFTISADTSKNTAYLQMNSLRAEDTAVYYCARWGKKVYGMDVWGQGTLVTVSS
VL: DIQMTQSPSSLSASVGDRVTITCRASQSISSYLAWYQQKPGKAPKLLIYGASSRASGVPSRFSGSGSGTDFTLTISSLQPEDFATYYCQQYMSVPITFGQGTKVEIKR
notes: Parent antibody; also called NRP1
FACS Geometric Mean [8]: 338

Source: patent publication US20120014957A1 (AbbVie / Abbott, published 2012)
